B1: Azoarcus group I ribozyme (parent)
chain: GUGCCUUGCGCCGGGAAACCACGCAAGGGAUGGUGUCAAAUUCGGCGAAACCUAAGCGCCCGCCCGGGCGUAUGGCAACGCCGAGCCAAGCUUCGGCGCCUGCGCCGAUGAAGGUGUAGAGACUAGACGGCACCCACCUAAGGCAAACGCUAUGGUGAAGGCAUAGUCCAGGGAGUGGCGAAAGUCACACAAACCGG

Variants of: B1
Test: reverse-splicing fitness (ratio to wild type); higher = more active; in vitro selection; Mg2+ level not given
Outline: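 An in vitro group I ribozyme library with randomized positions was T7-transcribed and gel-purified. In triplicate, 10 pmol RNA in EPPS pH 7.5 was reacted with 50 pmoles of a 30-nt RNA substrate for 1 h at 37 °C across several added MgCl2 levels (1–48 mM), then stopped with EDTA. Products were reverse transcribed from a substrate-complementary primer, PCR-amplified and sequenced (HiSeq 4000). Fitness is a variant's read proportion after selection over that before, normalised to wild type.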
Work on GUGCCUUGCGCCGGGAAACCACGCAAGGGAUGGUGUCAAAUUCGGCGAAACCUAAGCGCCCGCCCGGGCGUAUGGCAACGCUGAGCCAAGCUUCGGCGCCUGCGCCGAUGCAGGUGUAGGGACUAGACGGCACCCACCUAAGGCAAACGUUAUGGUGAAGGCAUAGUCAAGGGAGCGGCGAAAGUCACACAAACCGG [C82U A111C A120G C150U C169A U176C] yielded a reverse-splicing fitness of 0.0113.
In the case of GUGCCUUGCGCCGGGAAACCACGCAAGGGAUGGUGUCAAAUUCGGCGAAACCUAAGCGCCCGCCCGGGCGUAUGGCAACGCUGAGCCAAGCUUCGGCGCCUGCGCCGAUGCAGGUGUAGGGACUAGACGGCACCCACCUAAGGCAAACGUUAUGGUGAAGGCAUAGUCAAGGGAGGGGCGAAAGUCACACAAACCGG [C82U A111C A120G C150U C169A U176G], the reverse-splicing fitness is reported as 0.00479.
Variant GUGCCUUGCGCCGGGAAACCACGCAAGGGAUGGUGUCAAAUUCGGCGAAACCUAAGCGCCCGCCCGGGCGUAUGGCAACGCUGAGCCAAGCUUCGGCGCCUGCGCCGAUGCAGGUGUAGGGACUAGACGGCACCCACCUAAGGCAAACGUUAUGGUGAAGGCAUAGUCGAGGGAGUGGCGAAAGUCACACAAACCGG [C82U A111C A120G C150U C169G] has a reverse-splicing fitness of 0.00848.
Variant GUGCCUUGCGCCGGGAAACCACGCAAGGGAUGGUGUCAAAUUCGGCGAAACCUAAGCGCCCGCCCGGGCGUAUGGCAACGCUGAGCCAAGCUUCGGCGCCUGCGCCGAUGCAGGUGUAGGGACUAGACGGCACCCACCUAAGGCAAACGUUAUGGUGAAGGCAUAGUCGAGGGAGAGGCGAAAGUCACACAAACCGG [C82U A111C A120G C150U C169G U176A] has a reverse-splicing fitness of 0.0121.
In the case of GUGCCUUGCGCCGGGAAACCACGCAAGGGAUGGUGUCAAAUUCGGCGAAACCUAAGCGCCCGCCCGGGCGUAUGGCAACGCUGAGCCAAGCUUCGGCGCCUGCGCCGAUGCAGGUGUAGGGACUAGACGGCACCCACCUAAGGCAAACGUUAUGGUGAAGGCAUAGUCGAGGGAGCGGCGAAAGUCACACAAACCGG [C82U A111C A120G C150U C169G U176C], the reverse-splicing fitness is reported as 0.0161.
In the case of GUGCCUUGCGCCGGGAAACCACGCAAGGGAUGGUGUCAAAUUCGGCGAAACCUAAGCGCCCGCCCGGGCGUAUGGCAACGCUGAGCCAAGCUUCGGCGCCUGCGCCGAUGCAGGUGUAGGGACUAGACGGCACCCACCUAAGGCAAACGUUAUGGUGAAGGCAUAGUCGAGGGAGGGGCGAAAGUCACACAAACCGG [C82U A111C A120G C150U C169G U176G], the reverse-splicing fitness is reported as 0.00441.
GUGCCUUGCGCCGGGAAACCACGCAAGGGAUGGUGUCAAAUUCGGCGAAACCUAAGCGCCCGCCCGGGCGUAUGGCAACGCUGAGCCAAGCUUCGGCGCCUGCGCCGAUGCAGGUGUAGGGACUAGACGGCACCCACCUAAGGCAAACGUUAUGGUGAAGGCAUAGUCUAGGGAGUGGCGAAAGUCACACAAACCGG [C82U A111C A120G C150U C169U] gave a reverse-splicing fitness of 0.00841.
In the case of GUGCCUUGCGCCGGGAAACCACGCAAGGGAUGGUGUCAAAUUCGGCGAAACCUAAGCGCCCGCCCGGGCGUAUGGCAACGCUGAGCCAAGCUUCGGCGCCUGCGCCGAUGCAGGUGUAGGGACUAGACGGCACCCACCUAAGGCAAACGUUAUGGUGAAGGCAUAGUCUAGGGAGAGGCGAAAGUCACACAAACCGG [C82U A111C A120G C150U C169U U176A], the reverse-splicing fitness is reported as 0.017.
Variant GUGCCUUGCGCCGGGAAACCACGCAAGGGAUGGUGUCAAAUUCGGCGAAACCUAAGCGCCCGCCCGGGCGUAUGGCAACGCUGAGCCAAGCUUCGGCGCCUGCGCCGAUGCAGGUGUAGGGACUAGACGGCACCCACCUAAGGCAAACGUUAUGGUGAAGGCAUAGUCUAGGGAGCGGCGAAAGUCACACAAACCGG [C82U A111C A120G C150U C169U U176C] has a reverse-splicing fitness of 0.014.
With GUGCCUUGCGCCGGGAAACCACGCAAGGGAUGGUGUCAAAUUCGGCGAAACCUAAGCGCCCGCCCGGGCGUAUGGCAACGCUGAGCCAAGCUUCGGCGCCUGCGCCGAUGCAGGUGUAGGGACUAGACGGCACCCACCUAAGGCAAACGUUAUGGUGAAGGCAUAGUCUAGGGAGGGGCGAAAGUCACACAAACCGG [C82U A111C A120G C150U C169U U176G] the reverse-splicing fitness was 0.00513.
With GUGCCUUGCGCCGGGAAACCACGCAAGGGAUGGUGUCAAAUUCGGCGAAACCUAAGCGCCCGCCCGGGCGUAUGGCAACGCUGAGCCAAGCUUCGGCGCCUGCGCCGAUGCAGGUGUAGGGACUAGACGGCACCCACCUAAGGCAAACGUUAUGGUGAAGGCAUAGUCCAGGGAGAGGCGAAAGUCACACAAACCGG [C82U A111C A120G C150U U176A] the reverse-splicing fitness was 0.0106.
Variant GUGCCUUGCGCCGGGAAACCACGCAAGGGAUGGUGUCAAAUUCGGCGAAACCUAAGCGCCCGCCCGGGCGUAUGGCAACGCUGAGCCAAGCUUCGGCGCCUGCGCCGAUGCAGGUGUAGGGACUAGACGGCACCCACCUAAGGCAAACGUUAUGGUGAAGGCAUAGUCCAGGGAGCGGCGAAAGUCACACAAACCGG [C82U A111C A120G C150U U176C] has a reverse-splicing fitness of 0.0194.
For GUGCCUUGCGCCGGGAAACCACGCAAGGGAUGGUGUCAAAUUCGGCGAAACCUAAGCGCCCGCCCGGGCGUAUGGCAACGCUGAGCCAAGCUUCGGCGCCUGCGCCGAUGCAGGUGUAGGGACUAGACGGCACCCACCUAAGGCAAACGUUAUGGUGAAGGCAUAGUCCAGGGAGGGGCGAAAGUCACACAAACCGG [C82U A111C A120G C150U U176G], the reverse-splicing fitness was 0.00514.
Variant GUGCCUUGCGCCGGGAAACCACGCAAGGGAUGGUGUCAAAUUCGGCGAAACCUAAGCGCCCGCCCGGGCGUAUGGCAACGCUGAGCCAAGCUUCGGCGCCUGCGCCGAUGCAGGUGUAGGGACUAGACGGCACCCACCUAAGGCAAACGCUAUGGUGAAGGCAUAGUCAAGGGAGUGGCGAAAGUCACACAAACCGG [C82U A111C A120G C169A] has a reverse-splicing fitness of 0.00844.
Work on GUGCCUUGCGCCGGGAAACCACGCAAGGGAUGGUGUCAAAUUCGGCGAAACCUAAGCGCCCGCCCGGGCGUAUGGCAACGCUGAGCCAAGCUUCGGCGCCUGCGCCGAUGCAGGUGUAGGGACUAGACGGCACCCACCUAAGGCAAACGCUAUGGUGAAGGCAUAGUCAAGGGAGAGGCGAAAGUCACACAAACCGG [C82U A111C A120G C169A U176A] yielded a reverse-splicing fitness of 0.0141.
